Measurements as given in publication PMC4500170.

Tested on: Cc1cc(O)cc2c(C(=O)O)c(O)ccc12
Test: purified protein
Details: 2.5 mM SAM, 100 mM phosphate pH 6.5, 25 °C, 10 μM enzyme

## NcsB1 (Streptomyces carzinostaticus; R11A)
  Km: 419 ± 61 µM
  kcat: 0.0207 ± 0.001 s⁻¹

## NcsB1 (Streptomyces carzinostaticus; R11K)
  Km: 319 ± 40 µM
  kcat: 0.0197 ± 0.000833 s⁻¹

## NcsB1 (Streptomyces carzinostaticus; R11W)
  Km: 400 ± 68 µM
  kcat: 0.01 ± 0.0005 s⁻¹

## NcsB1 (Streptomyces carzinostaticus; Y293I)
  Km: 649 ± 9 µM
  kcat: 0.0127 ± 0.000667 s⁻¹
